In patent US20240116999A1, “CONFORMATIONALLY CONSTRAINED GLUCAGON ANALOGUES AND THEIR USE IN GLUCAGON-SINGLE CHAIN INSULIN FUSION PROTEINS” (THE TRUSTEES OF INDIANA UNIVERSITY, priority 2021, published 2024):

Biological target: glucagon receptor (GCGR)
Experiment: cell-based or functional assay

Work on dasiglucagon (Zealand Pharma) (peptide) yielded an EC50, cell-based cyclic AMP (cAMP) activity assay of 1.04 nM.
